Measurements reported in the RNAGym collection of RNA variant scans (doi:10.1073/pnas.2313332121).

B1: TPR t1 (parent)
chain: GACCAAUCUGCCCUCAGAGCUCGAGAACAUCUUCGGAUGCAGAGGAGGCAGGCUUCGGUGGCGCGAUAGCGCCAACGUCCUCAACCUCCAAUGCAUCCCACCACAUGAUGAUGCCUGAAGAGCCUUGGUUUUUUG

Variants of: B1
Assay: polymerase ribozyme fitness, log enrichment relative to wild type (log ratio); higher = more active; in vitro selection for triplet polymerase activity
Procedure, shortened: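 The heterodimeric triplet polymerase ribozyme's subunits were each mutagenized into PCR-built libraries and transcribed. Every library was selected once, in triplicate, by annealing with a biotinylated primer, the partner subunit and triplets, incubating frozen at −7 °C, gel-excising extended constructs, capturing on streptavidin beads and running RT-PCR. Input and output libraries were Illumina-sequenced, with genotypes kept only at ≥10 input reads and ≥1 read per output. Fitness, from inverse-variance-weighted replicate averages, is the base-2 logarithm of genotype enrichment over wild-type enrichment.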

| Variant | polymerase ribozyme fitness (log ratio) |
| --- | --- |
| C22A G44U C62U U112G | -5.2 |
| U21G G47A | -0.934 |
| C22U G45A C89U A121C C124G U125A | -5.69 |
| C22G C114U | -3.43 |
| C22G C114A | -3.01 |
| C22U C34U C73U A83C C124G | -6.07 |
| C22A G110U | -5.03 |
| C22G A83U C89G A121G | -3.33 |
| U21G G45U C101A | -3.2 |
| C22A C34U G36U G61C A111U | -6.58 |
| C22G A46G C82A A121G G135U | -2.94 |
| C22G C31U G51C U81A G93A C123U | -6.15 |
| C22U A26G A119G G122A C123A | -2.69 |
| U21G C22A A27U A95U C123A | -5.39 |
| U21C C49A U78G C123A | -1.05 |
| U21C U38G C49A G120U U130G U131G | -4.41 |
| U21G G47C C85G G93C A100U C101U | -5.69 |
| U21G C123G U126G | 0.0716 |
| C22G G52U A111C | -3.81 |
| C22G C70A | -4.66 |
| C22A C40U C49A C72U C123G | -5.79 |

| Variant | polymerase ribozyme fitness (log ratio) |
| --- | --- |
| U21C G39A U54A U78A C98U G110U | -6.3 |
| C22A A27C C124A | -4.12 |
| C22G C34G C70A C123A | -6.39 |
| U21C G63A C82A C124G U133G | -0.991 |
| C22G G57A G63A C101A A105U | -6.73 |
| C22G C40A G69C G113A | -5.15 |
| U21C G48U U112C A118U | 1.11 |
| U21C G42A | -1.45 |
| U21G G93A C114G | -4.94 |
| C22U C31G G63C C82A U87C U112A | -6.33 |
| C22A | -4.89 |
| C22U | -3.85 |
| C22G | -2.97 |
| C22G A95G C104U | -2.37 |
| C22G G63U C88G | -5.64 |
| C22G U106A | -2.37 |
| C22G G23C A24C C89A C123A | -6.86 |
| C22A A119G | -3.88 |
| U21C A46G C53A C98U | -3.28 |
| U21G G39A | -1.39 |
| C22A C64U C114G G135U | -5.66 |

| Variant | polymerase ribozyme fitness (log ratio) |
| --- | --- |
| C22G C98U | -4.52 |
| U21C U112G | -0.886 |
| U21C G57U C72G | -2.29 |
| C22U G77A | -4.04 |
| U21C C70U A111C | -0.344 |
| C22G G36A G47C A119U C124G | -3.6 |
| U21C G36U C64U | -0.911 |
| U21G C40G | -0.951 |
| C22A G23A G35A C82G C89U C104U A111U | -6.73 |
| C22G G42U A84U C115A C124G | -3.07 |
| C22A G61U C102A G122A | -5.53 |
| C22G G23A G52C | -3.57 |
| C22G C53G C123G | -2.61 |
| C22G G60C A95C A121U | -2.32 |
| U21G G39C A41G C115A | -2 |
| C22G A43U A46G U59A G120C | -4.94 |
| C22U C86G A100C A121U G135U | -4.77 |
| C22U C76A | -3.53 |
| U21G A105U G120A | -2.92 |
| U21G C72G | -1.39 |
| U21C A29U C53G G61A C89U | -3.59 |

| Variant | polymerase ribozyme fitness (log ratio) |
| --- | --- |
| C22G A29U G120U U133A | -5.17 |
| C22G U67A G93C A103G G110U | -5.12 |
| C22A A37G U81A A121C | -6.04 |
| U21C A95G | -0.566 |
| C22G A37U C104U U132A | -3.57 |
| C22A C40U C73U U112A U129C | -4.96 |
| C22U A83U | -4.1 |
| C22U C73A | -3.74 |
| C22A G60C U87A | -5.83 |
| C22G C56U C104A | -2.51 |
| C22A C49G G69U C85U | -2.28 |
| C22A U33C C49U C79A C123G | -7.05 |
| C22A C115U | -6.25 |
| C22A C115G | -3.77 |
| C22A C115A | -4.55 |
| C22U A100C | -4.93 |
| U21C C101U | -0.578 |
| C22A C123A U125G | -4.58 |
| U21C A121C | 1.32 |
| C22A U54C | -4.71 |
